These results are taken from paper PMC9398908, “GLP-1-mediated delivery of tesaglitazar improves obesity and glucose metabolism in male mice” (Nature Metabolism, 2022).

A short description of data set [1]: in vivo. The arrangement: species or system C57BL6J mice. To be noted: mouse. The method, then:
(§1) Plasma concentration-time profiles were analysed in C57BL6J mice and Sprague Dawley rats by a non-compartmental method using sparse sampling in Pharsight Phoenix WinNonLin v.6.4 software, and the resulting terminal half-life (T1/2), maximum plasma concentration (Cmax), time for maximum plasma concentration (Tmax), and AUC from zero to last valid measurable concentration-time point (AUC0-t) were determined.

Data set [2] in a line: in vivo. The arrangement: species or system Sprague Dawley rats. To be noted: Sprague Dawley, rat. The method, then:
as §1

For data set [3], the system named is C57BL/6J DIO mice. In words: Urinary albumin:creatinine ratio in DIO mice (Extended Data Fig. 2g). It counts as in vivo, mouse. The following applies: 14-day treatment, 50 nmol kg−1 per day, in words. The source says: Frozen urine samples from heterozygous GIPR^dn mice in a CD1 background (n = 3) served as positive controls. […] For each treatment group, uACR was computed as a ratio of urinary albumin (mg ml^−1) to urinary creatinine (mg ml^−1).

The mark [4] stands for this setting: C57BL6J, 100 nmol/kg, concentration (PK, Extended Data Fig. 1c).
[5] abbreviates: 100 nmol/kg, concentration (PK, Extended Data Fig. 1c).
The mark [6] stands for this setting: male, 100 nmol/kg, concentration (PK, Extended Data Fig. 1c).
Setting [7] is: male, C57BL6/J, 100 nmol/kg, concentration (PK, Extended Data Fig. 1c).

In data set [1] (setting [4]), `CC[C@H](C)[C@H](NC(=O)[C@H](Cc1ccccc1)NC(=O)[C@H](CCC(=O)O)NC(=O)[C@H](CCCCN)NC(=O)[C@H](C)NC(=O)[C@H](C)NC(=O)[C@H](CCC(N)=O)NC(=O)[C@H](CCC(=O)O)NC(=O)[C@H](CCC(=O)O)NC(=O)[C@H](CC(C)C)NC(=O)[C@H](Cc1ccc(O)cc1)NC(=O)[C@H](CO)NC(=O)[C@H](CO)NC(=O)[C@@H](NC(=O)[C@H](CC(=O)O)NC(=O)[C@H](CO)NC(=O)[C@@H](NC(=O)[C@H](Cc1ccccc1)NC(=O)[C@@H](NC(=O)CNC(=O)[C@H](CCC(=O)O)NC(=O)C(C)(C)NC(=O)[C@@H](N)Cc1c[nH]cn1)[C@@H](C)O)[C@@H](C)O)C(C)C)C(=O)N[C@@H](C)C(=O)N[C@@H](Cc1c[nH]c2ccccc12)C(=O)N[C@@H](CC(C)C)C(=O)N[C@H](C(=O)N[C@@H](CCCCN)C(=O)NCC(=O)NCC(=O)N1CCC[C@H]1C(=O)N[C@@H](CO)C(=O)N[C@@H](CO)C(=O)NCC(=O)N[C@@H](C)C(=O)N1CCC[C@H]1C(=O)N1CCC[C@H]1C(=O)N1CCC[C@H]1C(=O)N[C@@H](CO)C(=O)N[C@@H](CCCCN)C(N)=O)C(C)C` [GLP-1RA, GLP-1 Aib2 Glu16 CEX Lys40] showed a level at time molar at 0.5 h of 435 nM and a level at time molar at 1 h of 219 nM. Moreover, in data set [1] (male, C57BL6/J), the AUC(0-t) (as a rule, exposure summed from dosing to a finite time, without extrapolation to infinity) turned out to be 0.399 µM·h and the highest concentration (Cmax) (as a rule, the peak of the concentration-time curve) came out at 361 nM. Also, the level at time molar at 4 h in data set [2] (setting [5]) is 10.7 nM. Also, in data set [2] (male), the AUC(0-t) amounted to 0.131 µM·h; the peak concentration (Cmax) was 41.3 nM; the half-life (in general, the time in which the quantity being followed falls by half) is 2.13 h. Also, in data set [2] (setting [6]), the level at time molar at 0.5 h is 30.7 nM, the level at time molar at 2 h was 26.1 nM and the level at time molar at 4 h is 15.8 nM.

For the molecule `CCO[C@@H](Cc1ccc(OCCc2ccc(OS(C)(=O)=O)cc2)cc1)C(=O)N[C@@H](CCC(=O)NCCCC[C@H](NC(=O)[C@H](CO)NC(=O)[C@@H]1CCCN1C(=O)[C@@H]1CCCN1C(=O)[C@@H]1CCCN1C(=O)[C@H](C)NC(=O)CNC(=O)[C@H](CO)NC(=O)[C@H](CO)NC(=O)[C@@H]1CCCN1C(=O)CNC(=O)CNC(=O)[C@H](CCCCN)NC(=O)[C@@H](NC(=O)[C@H](CC(C)C)NC(=O)[C@H](Cc1c[nH]c2ccccc12)NC(=O)[C@H](C)NC(=O)[C@@H](NC(=O)[C@H](Cc1ccccc1)NC(=O)[C@H](CCC(=O)O)NC(=O)[C@H](CCCCN)NC(=O)[C@H](C)NC(=O)[C@H](C)NC(=O)[C@H](CCC(N)=O)NC(=O)[C@H](CCC(=O)O)NC(=O)[C@H](CCC(=O)O)NC(=O)[C@H](CC(C)C)NC(=O)[C@H](Cc1ccc(O)cc1)NC(=O)[C@H](CO)NC(=O)[C@H](CO)NC(=O)[C@@H](NC(=O)[C@H](CC(=O)O)NC(=O)[C@H](CO)NC(=O)[C@@H](NC(=O)[C@H](Cc1ccccc1)NC(=O)[C@@H](NC(=O)CNC(=O)[C@H](CCC(=O)O)NC(=O)C(C)(C)NC(=O)[C@@H](N)Cc1c[nH]cn1)[C@@H](C)O)[C@@H](C)O)C(C)C)[C@@H](C)CC)C(C)C)C(N)=O)C(=O)O` [GLP-1RA/tesaglitazar, GLP-1 Aib2 Glu16 CEX Lys40/tesaglitazar conjugate], in data set [1] (setting [4]), the level at time molar at 10 min was found to be 246 nM, the level at time molar at 0.5 h came to 314 nM and the level at time molar at 1 h came out at 131 nM. Also, in data set [1] (male, C57BL6/J), the AUC(0-t) was 0.505 µM·h, the peak concentration (Cmax) was 278 nM and the half-life was 1.1 h. In addition, in data set [1] (setting [7]), the level at time molar at 2 h stood at 87.6 nM and the level at time molar at 4 h turned out to be 21.6 nM. In addition, in data set [3], the “urinary albumin:creatinine ratio” value is on record as “likewise not changed”. Moreover, the level at time molar at 4 h in data set [2] (setting [5]) turned out to be 20.5 nM. For the same molecule, in data set [2] (male), the AUC(0-t) amounted to 0.174 µM·h, the Cmax was determined as 37.5 nM and the half-life was 2.54 h. Besides, in data set [2] (setting [6]), the level at time molar at 10 min amounted to 41.7 nM, the level at time molar at 1 h is 40.3 nM, the level at time molar at 2 h was determined as 26.8 nM and the level at time molar at 4 h amounted to 21.2 nM.
